Publication PMC4091690, “A Broadly Conserved G-Protein-Coupled Receptor Kinase Phosphorylation Mechanism Controls Drosophila Smoothened Activity” (PLoS Genetics, 2014)
Each block holds one molecule with its values, some of them ahead of it.

Columns and labels:
[1] = molecular target: Smo^SD.c12D (Smo^SD with Gprk2 phosphorylation clusters 1 and 2 changed to Asp), C-terminally tagged with GFP10 or RLucII (UniProt P91682); assay: BRET; settings: S2 cells, Luc + GFP10 tagged pair, read off a plot
[2] = molecular target: T1, Smo^core (Drosophila Smoothened amino acids 1-663), C-terminally tagged with GFP10 (Drosophila, UniProt P91682 32-663); assay: FRET or BRET; BRET in intact S2-R+ cells between C-terminally GFP10-tagged truncated Smo variants (300 ng) and Cos2-RLucII (75 ng), myc-Fu (75 ng) co-transfected; cells treated with control (beta-gal), gprk2 or smo 3'UTR dsRNA, without or with myc-Gprk2; net BRET; settings: partners not purified
T1 construct: signal peptide in the construct; Smoothened (Smo), Drosophila melanogaster, amino acids 1-663, truncated just after the third Gprk2 phosphorylation cluster; also called Smo^core-GFP10; source: S2-R+ cells, transfected (pRmHa3.puro, induced with CuSO4), in intact cells; not shown: GFP10, C-terminal, kept
T1 sequence (looked up): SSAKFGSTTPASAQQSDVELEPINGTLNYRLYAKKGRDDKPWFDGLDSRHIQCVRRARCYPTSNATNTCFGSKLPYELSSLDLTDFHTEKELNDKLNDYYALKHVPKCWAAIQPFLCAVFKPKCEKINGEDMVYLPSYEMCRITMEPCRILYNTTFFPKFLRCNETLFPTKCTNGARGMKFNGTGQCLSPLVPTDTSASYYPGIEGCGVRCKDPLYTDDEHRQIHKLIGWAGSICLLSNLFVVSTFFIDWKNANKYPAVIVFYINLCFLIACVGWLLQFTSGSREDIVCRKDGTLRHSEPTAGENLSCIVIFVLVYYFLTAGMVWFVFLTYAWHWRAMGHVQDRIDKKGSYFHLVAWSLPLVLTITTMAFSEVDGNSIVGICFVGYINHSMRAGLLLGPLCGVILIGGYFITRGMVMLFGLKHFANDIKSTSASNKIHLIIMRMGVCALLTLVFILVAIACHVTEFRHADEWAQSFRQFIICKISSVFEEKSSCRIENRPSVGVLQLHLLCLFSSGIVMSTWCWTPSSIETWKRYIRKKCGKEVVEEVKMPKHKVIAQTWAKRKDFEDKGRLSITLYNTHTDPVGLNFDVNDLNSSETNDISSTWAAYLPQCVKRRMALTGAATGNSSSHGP

response ([1]; dsRNA targeting β-gal (control), parent: est. 100): 170 | response ([1]; gprk2 dsRNA, parent: est. 67): 160
Molecule: Smo^SD (PKA- and CKI-phosphomimetic form of Drosophila Smoothened), C-terminally tagged with GFP10 or Renilla luciferase II (from UniProt P91682) S604D; T606D; T610D; T612D; S626D; S627D; T629D; S633D; S634D; T635D

fold increase of net BRET on Gprk2 overexpression against control cells [2]: > 2.2 fold
B1: Costal-2 (Cos2), C-terminally tagged with Renilla luciferase II (natural protein, Drosophila, UniProt O16844 1-1201, looked up)
chain: MEIPIQVAVRIFPHRELKDLLRSFGPTEPKKDAQAVDEGADSKDSEAQVPAAEKDNPSISETDPNGNAEQDSAADSKTIPDANGNDSGQKDYPDSAYCVQAIPISASALGLPSALPGGDPMDSIAAGLIQVGPHTVPVTHALPSSSSQEQVYHQTVFPLITLFLEGFDASVVTYGQRGQGKSYTLYGNVQDPTLTDSTEGVVQLCVRDIFSHISLHPERTYAINVGFVEICGGDVCDLLGMGNIHCTNVDAVFHWLQVGLSARQSLPAHTLFTLTLEQQWVSKEGLLQHRLSTASFSDLCGTERCGDQPPGRPLDAGLCMLEQVISTLTDPGLMYGVNGNIPYGQTTLTTLLKDSFGGRAQTLVILCVSPLEEHLPETLGNLQFAFKVQCVRNFVIMNTYSDDNTMIVQPAEPVPESNSSAGPLSQAGPGDNFGLQFAASQWSKLVTNAEGLFSKLIDSKLITEVEKEQIEEWLFLKQECEECLSSTEAMRQQKQLVPILEAEEPEDVNSEAANSESPNSDNENDTDNESHRPDLDDKIESLMEEFRDKTDALILEKHAEYLSKHPKAVMQSQDREIEAQPPEENGDDRKVSIGSRRRSVQPGASLSTAELAMLNRVASQQPPPPIDPESVVDPLESSSGEGIRQAALAAAAATAPIEQLQKKLRKLVAEIEGKQRQLREIEETIQVKQNIIAELVKNSDTRSHAKQRFHKKRAKLEAECDKAKKQLGKALVQGRDQSEIERWTTIIGHLERRLEDLSSMKHIAGESGQKVKKLQQSVGESRKQADDLQKKLRKECKLRCQMEAELAKLRESRETGKELVKAQGSPEQQGRQLKAVQARITHLNHILREKSDNLEEQPGPEQQETLRHEIRNLRGTRDLLLEERCHLDRKLKRDKVLTQKEERKLLECDEAIEAIDAAIEFKNEMITGHRSIDTSDRIQREKGEQMLMARLNRLSTEEMRTLLYKYFTKVIDLRDSSRKLELQLVQLERERDAWEWKERVLSNAVRQARLEGERNAVLLQRQHEMKLTLMLRHMAEETSASSASYGERALAPACVAPPVQASSDFDYDHFYKGGGNPSKALIKAPKPMPTGSALDKYKDKEQRSGRNIFAKFHVLTRYASAAAAGSSGSTAEESTALIESTTTATATTTSTTTTGAVGKVKDKALVSFRPEQLKRLMPAPTATKVTRQKNKIIIQDASRRN
notes: Costal-2 (Cos2), kinesin-like protein, Drosophila; also called Cos2-Luc; Cos2-RLucII; source: S2-R+ cells, transfected (pRmHa3.puro, induced with CuSO4), in intact cells; not shown: RLucII, C-terminal, kept
